Results from article PMC6149950, “Designability of Aromatic Interaction Networks at E. coli Bacterioferritin B-Type Channels” (Molecules : A Journal of Synthetic Chemistry and Natural …, 2017).

B1: bacterioferritin from E. coli (BFR) mutant N34W (natural protein)
chain: not shown
notes: bacterioferritin (BFR), E. coli, with N34W; made by site-directed mutagenesis of wild-type BFR in pET32 Ek/LIC
B2: bacterioferritin from E. coli (BFR) double mutant D132W/N34W (natural protein)
chain: not shown
notes: bacterioferritin (BFR), E. coli, with D132W and N34W; made by site-directed mutagenesis of wild-type BFR in pET32 Ek/LIC

Target: the molecule itself
Assay: SEC; Superdex 200 10/300 GL, 50 mM NaH2PO4, 150 mM NaCl, pH 7.0, 4 °C, 0.5 mL/min; column calibrated with six standard proteins; self-assembly of dimers into the 24-mer cage

| Protein | stoichiometry N |
| --- | --- |
| B1 | 2 |
| B2 | 2 |
